Target: HLA-A*24 (human)
Experiment: UV-ligand exchange, anti-b2m ELISA

Binder	peptide exchange yield [%]
YFDKVVTL [SEQ ID NO: 215 peptide YFDKVVTL]	20 to 49
TYTTVPRVAF [SEQ ID NO: 172 peptide …]	> 75
VYGFQWRHF [SEQ ID NO: 276 peptide …]	> 75
EYQENFLSF [SEQ ID NO: 206 peptide …]	50 to 75
RYSTGLAGNLL [SEQ ID NO: 221 peptide …]	50 to 75
VYEDQVGKF [SEQ ID NO: 170 peptide …]	20 to 49
IYDDSFIRPVTF [SEQ ID NO: 180 peptide …]	50 to 75
RYLNKAFHI [SEQ ID NO: 284 peptide …]	50 to 75
IYLVSIPEL [SEQ ID NO: 161 peptide …]	> 75
AYLHSHALI [SEQ ID NO: 274 peptide …]	> 75
LFIPSSKLLFL [SEQ ID NO: 171 peptide …]	50 to 75
IFLDYEAGTLSF [SEQ ID NO: 227 peptide …]	> 75
EYPLVINTL [SEQ ID NO: 219 peptide …]	50 to 75
TYGDAGLTYTF [SEQ ID NO: 283 peptide …]	50 to 75
IYKVGAPTI [SEQ ID NO: 185 peptide …]	50 to 75
TYSVSFPMF [SEQ ID NO: 195 peptide …]	> 75
LYHDIFSRL [SEQ ID NO: 271 peptide …]	> 75
VFTRVSSFL [SEQ ID NO: 162 peptide …]	50 to 75
TYIESASEL [SEQ ID NO: 279 peptide …]	50 to 75
NYINRILKL [SEQ ID NO: 167 peptide …]	> 75
TYLRDQHFL [SEQ ID NO: 187 peptide …]	> 75
RYPDNLKHLYL [SEQ ID NO: 280 peptide …]	> 75
LYLDIINLF [SEQ ID NO: 181 peptide …]	> 75
KFSSFSLFF [SEQ ID NO: 164 peptide …]	50 to 75
FFPPTRQMGLLF [SEQ ID NO: 217 peptide …]	> 75

Binder	peptide exchange yield [%]
DYLKGLASF [SEQ ID NO: 163 peptide …]	> 75
IYSWILDHF [SEQ ID NO: 173 peptide …]	> 75
QYLENLEKL [SEQ ID NO: 224 peptide …]	50 to 75
VYRDETGELF [SEQ ID NO: 226 peptide …]	50 to 75
VFQNFPLLF [SEQ ID NO: 184 peptide …]	> 75
RYPDNLKHL [SEQ ID NO: 286 peptide …]	20 to 49
IFIEVFSHF [SEQ ID NO: 178 peptide …]	50 to 75
LYLDKATLI [SEQ ID NO: 198 peptide …]	50 to 75
IFPQFLYQF [SEQ ID NO: 186 peptide …]	> 75
KYPVEWAKF [SEQ ID NO: 289 peptide …]	> 75
YYVYIMNHL [SEQ ID NO: 225 peptide …]	50 to 75
RYFKGLVF [SEQ ID NO: 188 peptide RYFKGLVF]	50 to 75
TYIKPISKL [SEQ ID NO: 273 peptide …]	50 to 75
YYLEVGKTLI [SEQ ID NO: 211 peptide …]	> 75
HYSQELSLLYL [SEQ ID NO: 158 peptide …]	> 75
LYLKLWNLI [SEQ ID NO: 214 peptide …]	50 to 75
GFFIFNERF [SEQ ID NO: 190 peptide …]	50 to 75
LYNKGFIYL [SEQ ID NO: 159 peptide …]	> 75
VFKASKITF [SEQ ID NO: 191 peptide …]	50 to 75
DYTTWTALL [SEQ ID NO: 165 peptide …]	> 75
KYIPYKYVI [SEQ ID NO: 223 peptide …]	50 to 75
MYDSYWRQF [SEQ ID NO: 179 peptide …]	> 75
RYISDQLFTNF [SEQ ID NO: 278 peptide …]	> 75
VHIPEVYLI [SEQ ID NO: 205 peptide …]	50 to 75
IYTMIYRNL [SEQ ID NO: 210 peptide …]	> 75

Binder	peptide exchange yield [%]
VYVGGGQIIHL [SEQ ID NO: 174 peptide …]	50 to 75
VYPWLGALL [SEQ ID NO: 177 peptide …]	> 75
KYQDILETI [SEQ ID NO: 168 peptide …]	> 75
EYNQWFTKL [SEQ ID NO: 176 peptide …]	50 to 75
TYTQDFNKF [SEQ ID NO: 208 peptide …]	50 to 75
IYQLDTASI [SEQ ID NO: 182 peptide …]	50 to 75
VFTSTARAF [SEQ ID NO: 183 peptide …]	50 to 75
SYALLTYMI [SEQ ID NO: 192 peptide …]	> 75
WYVNGVNYF [SEQ ID NO: 189 peptide …]	20 to 49
RFHPTPLLL [SEQ ID NO: 193 peptide …]	> 75
EYSLFPGQVVI [SEQ ID NO: 197 peptide …]	50 to 75
QYLQDAYSF [SEQ ID NO: 272 peptide …]	> 75
EFGSLHLEFL [SEQ ID NO: 194 peptide …]	< 20
VYVSDIQEL [SEQ ID NO: 288 peptide …]	50 to 75
AYTLIAPNI [SEQ ID NO: 169 peptide …]	50 to 75
KYTSWYVAL [SEQ ID NO: 228 peptide …]	> 75
QYSSVFKSL [SEQ ID NO: 216 peptide …]	> 75
YYEVHKELF [SEQ ID NO: 175 peptide …]	> 75
LYIDRPLPYL [SEQ ID NO: 196 peptide …]	50 to 75
FYSRLLQKF [SEQ ID NO: 203 peptide …]	50 to 75
VYTLDIPVL [SEQ ID NO: 160 peptide …]	> 75
YYVESGKLF [SEQ ID NO: 166 peptide …]	> 75
KFVDSTFYL [SEQ ID NO: 282 peptide …]	> 75
EYINQGDLHEF [SEQ ID NO: 275 peptide …]	50 to 75
KYMVYPQTF [SEQ ID NO: 267 peptide …]	> 75

Reference: patent publication US20170189504A1
